{
  "source": "paper PMC11728977",
  "about": "“Crystallographic, kinetic, and calorimetric investigation of PKA interactions with L-type calcium channels and Rad GTPase” (The Journal of Biological Chemistry, 2024)",
  "key": {"[1]": {"test_system": "CC(C)C[C@H](NC(=O)[C@H](Cc1c[nH]cn1)NC(=O)[C@H](Cc1ccccc1)NC(=O)[C@H](CO)NC(=O)[C@H](C)NC(=O)[C@H](CCCNC(=N)N)NC(=O)[C@H](CCCNC(=N)N)NC(=O)CNC(=O)[C@H](CC(C)C)NC(=O)[C@H](CO)NC(=O)[C@H](C)NC(=O)[C@H](CO)NC(=O)[C@H](CCCNC(=N)N)NC(=O)[C@H](CC(C)C)NC(=O)[C@H](Cc1ccccc1)NC(=O)CNC(=O)[C@@H](N)CCCNC(=N)N)C(=O)O", "test": "purified protein, by the assay type", "conditions": "other: ADP-Glo; 3 nM PKAc, 1 mM ATP, 5 mM Mg2+, substrate 0-256 μM, room temperature 30 min; Michaelis-Menten fit; mean ± SD of n = 3 or 4; pH 7.4", "method": "(§1) We used enzyme kinetics to investigate the activity of catalytic subunit of PKA (PKAc) toward the three target sites within the C terminus of CaV1.2. We performed discontinuous kinase assays using an ADP-GloMax Assay kit.\n(§2) Kinase assays were conducted using an ADP-Glo Kinase Assay Kit (Promega). […] Therefore, we performed assays with excess ATP (1 mM) and Mg^2+ (5 mM) to saturate PKAc prior to substrate binding. Reagents were prepared as described in the kit, aliquoted, and frozen at −20 °C prior to use. Reactions were conducted in 384-well solid white polystyrene microplates (Corning). Peptide substrates and EFPreIQ were dissolved and/or diluted to 800 μM using 50 mM Hepes (pH 7.4), 150 mM KCl, 5 mM MgCl2, and 4 mM TCEP. […] For peptides lacking tryptophan, the amount of volume needed to achieve a concentration of 800 μM was calculated prior to dissolving. The peptides/substrate was 2-fold serially diluted using the same buffer to create 11 reactions per curve ranging from 0 to 256 μM. ATP was added to each reaction to achieve a final concentration of 1 mM. Reactions were initiated by the addition of thawed PKAc at a final concentration of 3 nM at a final well volume of 20 μl. After allowing reactions to occur at room temperature for 30 min, 3 × 5 ml from each reaction in a curve was taken and mixed with 5 ml ADP-Glo Reagent for a total of three technical replicates per biological replicate. After 40 min, 10 ml of kinase detection reagent was added to each technical replicate and, after waiting 60 min, relative luminescence unit were measured using a VICTOR X4 Multilabel Plate Reader (PerkinElmer).\n(§3) The relative luminescence unit values were converted to specific activity values via interpolation of a standard curve that was created in accordance with the manufacturer’s protocol. The three technical replicates were averaged to calculate a biological replicate value and plotted against peptide concentration using GraphPad 9 (Prism) software (https://www.graphpad.com/updates/prism-900-release-notes). Technical replicate values resulting from experimental error were removed from the dataset and subsequent averaging. […] The Michaelis–Menten kinetics fitting function was used to generate a nonlinear regression to calculate both a Km constant and Vmax value for each biological replicate curve. These Km constant and Vmax values were averaged and SDs are reported. Figures displaying data points and Michaelis–Menten curves depict the average specific activity values calculated from all biological replicates in the three or four experiments (n = 3 or n = 4) per peptide (n = 4 for Ser1981 and Ser272 peptides, n = 3 for all others)."}, "[2]": {"test_system": "C[C@H](NC(=O)CN)C(=O)NCC(=O)N[C@@H](CCCNC(=N)N)C(=O)N[C@@H](CCC(=O)O)C(=O)N[C@@H](CCCNC(=N)N)C(=O)N[C@@H](CC(=O)O)C(=O)N[C@@H](CCCNC(=N)N)C(=O)N[C@@H](CCCNC(=N)N)C(=O)N[C@@H](CCCNC(=N)N)C(=O)NCC(=O)N[C@@H](CO)C(=O)N[C@H](C(=O)N1CCC[C@H]1C(=O)N[C@@H](Cc1c[nH]c2ccccc12)C(=O)O)[C@@H](C)O", "test": "purified protein, by the assay type", "conditions": "other: ADP-Glo; 3 nM PKAc, 1 mM ATP, 5 mM Mg2+, substrate 0-256 μM, room temperature 30 min; Michaelis-Menten fit; mean ± SD of n = 3 or 4; pH 7.4", "method": "as §1, §2, §3"}},
  "data": [
    {"substance": "PKAc (catalytic subunit of PKA, PKAcα 16-351) (Mus musculus)", "values": [
      {"measurement": "Km", "setting": "[1]", "result": "8.1 ± 2.5", "unit": "µM"},
      {"measurement": "kcat", "setting": "[1]", "result": "15.5 ± 1.2", "unit": "s⁻¹"},
      {"measurement": "kcat/Km", "setting": "[1]", "result": "1.9e+06 ± 600000", "unit": "M⁻¹ s⁻¹"},
      {"measurement": "Km", "setting": "[2]", "result": "19.0 ± 6.7", "unit": "µM"},
      {"measurement": "kcat", "setting": "[2]", "result": "16.2 ± 0.8", "unit": "s⁻¹"},
      {"measurement": "kcat/Km", "setting": "[2]", "result": "900000 ± 300000", "unit": "M⁻¹ s⁻¹"}
    ]}
  ]
}
